Measurements from paper doi:10.1101/691972, “Structure of D. melanogaster ARC1 reveals a repurposed molecule with characteristics of retroviral Gag” (bioRxiv, 2019).

How the values were obtained:
[1] = target: the molecule itself; test: crystal structure; Se-Met dARC1 CA; orthorhombic (P212121, 1.7 Å) and hexagonal (P6122, 2.3 Å) crystal forms, each with a dimer in the asymmetric unit; NaCl, HEPES pH 7.5 type conditions, 18 °C
[2] = target: the molecule itself; test: SEC-MALS; SEC-MALLS; 25-400 µM loaded in 100 µL on Superdex INCREASE 200 10/300 GL; 20 mM Tris-HCl, 150 mM NaCl, 0.5 mM TCEP, 3 mM NaN3, pH 8.0

B1: Se-Met substituted dARC1 CA (residues S39-N205) (domain or fragment, Drosophila melanogaster)
chain: SRGKGNFSACTHSFGGTRDHDVVEEFIGNIETYKDVEGISDENALKGISLLFYGMASTWWQGVRKEATTWKEAIALIREHFSPTKPAYQIYMEFFQNKQDDHDPIDTFVIQKRALLAQLPSGRHDEETELDLLFGLLNIKYRKHISRHSVHTFKDLLEQGRIIEHNNPLE
modifications: seleno-methionine substituted (incorporation confirmed by ESI-MS)
notes: dARC1, Drosophila melanogaster, Uniprot Q7K1U0, residues 39-205 (CA domain); the added N-terminal Met was processed; Protein of the two solved crystal forms (orthorhombic and hexagonal); also called SeMet dARC1 CA; seleno-methionine derivative protein; source: E. coli B834 (DE3) in seleno-methionine medium, purified by the identical procedure (Ni-NTA, carboxypeptidase A, SEC); not shown: His6, …
binding result [1]: binds

B2: dARC1 CA (capsid domain region of D. melanogaster dARC1, residues S39-N205) (domain or fragment, Drosophila melanogaster)
chain: SRGKGNFSACTHSFGGTRDHDVVEEFIGNIETYKDVEGISDENALKGISLLFYGMASTWWQGVRKEATTWKEAIALIREHFSPTKPAYQIYMEFFQNKQDDHDPIDTFVIQKRALLAQLPSGRHDEETELDLLFGLLNIKYRKHISRHSVHTFKDLLEQGRIIEHNNPLE
notes: dARC1, Drosophila melanogaster, Uniprot Q7K1U0, residues 39-205 (CA domain); the added N-terminal Met was processed (confirmed by ESI-MS); Native (non-SeMet) protein used for SEC-MALLS and AUC; also called dARC CA; dARC1 CA (S39-N205); source: E. coli BL21 (DE3), purified (Ni-NTA, carboxypeptidase A digestion of the His-tag, Superdex 75 SEC); not shown: His6, C-terminal, cleaved
stoichiometry N [2]: 2

B3: dARC1 CA (F133A) (domain or fragment, Drosophila melanogaster)
chain: SRGKGNFSACTHSFGGTRDHDVVEEFIGNIETYKDVEGISDENALKGISLLFYGMASTWWQGVRKEATTWKEAIALIREHFSPTKPAYQIYMEFAQNKQDDHDPIDTFVIQKRALLAQLPSGRHDEETELDLLFGLLNIKYRKHISRHSVHTFKDLLEQGRIIEHNNPLE
notes: dARC1, Drosophila melanogaster, Uniprot Q7K1U0, residues 39-205 (CA domain) with F133A; also called F133A mutation; source: E. coli BL21 (DE3), purified
binding result [2]: binds
